Where a chain is given by its changes, count along the chain named.
T1: HER4 (UniProt Q15303 26-649, limits assumed)
T1 construct: also called EGFR HER family protein HER4
T1 sequence (looked up): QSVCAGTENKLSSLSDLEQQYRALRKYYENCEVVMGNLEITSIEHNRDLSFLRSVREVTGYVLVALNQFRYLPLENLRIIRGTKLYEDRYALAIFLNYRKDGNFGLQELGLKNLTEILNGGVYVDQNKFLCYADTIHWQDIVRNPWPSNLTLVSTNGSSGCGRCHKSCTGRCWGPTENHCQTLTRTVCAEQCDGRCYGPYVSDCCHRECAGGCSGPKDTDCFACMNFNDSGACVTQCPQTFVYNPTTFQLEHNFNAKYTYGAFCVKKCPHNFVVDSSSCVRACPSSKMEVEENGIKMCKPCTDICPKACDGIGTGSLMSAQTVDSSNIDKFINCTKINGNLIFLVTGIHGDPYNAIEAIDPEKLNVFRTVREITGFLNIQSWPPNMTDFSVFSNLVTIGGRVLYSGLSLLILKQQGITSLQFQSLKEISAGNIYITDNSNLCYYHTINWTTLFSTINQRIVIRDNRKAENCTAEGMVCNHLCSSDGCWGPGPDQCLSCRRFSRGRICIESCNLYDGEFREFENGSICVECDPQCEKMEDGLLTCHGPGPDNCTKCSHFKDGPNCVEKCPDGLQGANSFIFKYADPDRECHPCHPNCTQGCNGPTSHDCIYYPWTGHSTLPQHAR

T2: Semaphorin 3a (UniProt Q14563 21-771, limits assumed)
T2 construct: also called Sema 3a
T2 sequence (looked up): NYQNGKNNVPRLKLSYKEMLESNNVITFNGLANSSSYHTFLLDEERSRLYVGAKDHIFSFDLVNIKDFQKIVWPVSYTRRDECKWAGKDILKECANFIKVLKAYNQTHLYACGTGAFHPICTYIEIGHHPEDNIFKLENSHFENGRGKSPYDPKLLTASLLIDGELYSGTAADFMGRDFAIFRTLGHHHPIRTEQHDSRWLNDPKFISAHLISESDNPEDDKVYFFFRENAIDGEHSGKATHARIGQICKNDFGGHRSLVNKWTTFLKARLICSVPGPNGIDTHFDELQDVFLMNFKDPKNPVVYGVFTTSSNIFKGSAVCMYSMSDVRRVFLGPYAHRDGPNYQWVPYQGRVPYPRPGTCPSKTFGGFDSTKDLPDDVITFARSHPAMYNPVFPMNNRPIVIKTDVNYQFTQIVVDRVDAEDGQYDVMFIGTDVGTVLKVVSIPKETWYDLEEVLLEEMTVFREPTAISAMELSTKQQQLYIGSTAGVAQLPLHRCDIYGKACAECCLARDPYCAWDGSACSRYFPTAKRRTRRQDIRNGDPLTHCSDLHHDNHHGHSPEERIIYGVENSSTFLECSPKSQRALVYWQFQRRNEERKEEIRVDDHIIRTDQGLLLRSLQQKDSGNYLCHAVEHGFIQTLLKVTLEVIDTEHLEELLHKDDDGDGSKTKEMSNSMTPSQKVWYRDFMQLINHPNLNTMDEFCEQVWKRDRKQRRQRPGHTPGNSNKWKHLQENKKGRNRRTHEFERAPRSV

B1: RAA22 IgG (antibody, V domains shown)
VH: QVQLVQSGAEVKKPGSSVKVSCKASGGTFSDNDFSWVRQAPGQGLEWMGAIVAVFRTETYAQKFQDRVKITADISTRTTYMELSSLRSEDTAVYYCARRLMSAISGPGAPLLMWGQGTLVTVSS
VL: QSALTQPRSVSGSPGQSVTISCTGTSSDVGGYNYVSWYQQHPGKAPKLMIYDVSKRPSGVPDRFSGSKSGNTASLTISGLQAEDEADYYCSSYTSSDTLEIFGGGTKLTVL
B2: QD6 IgG (antibody, V domains shown)
VH: B1 VH with F55V
VL: B1 VL with K55E, S91F
notes: also called anti-EGFR antibody clone QD6
B3: B09-57 IgG (antibody, V domains shown)
VH: QVQLVQSGAEVKKPGASVKVSCKASGYTFTDYYIHWVRQATGQGLEWMGWMNPNSGNTGYAQKFQGRVTMTRDTSISTAYMELSSLRSEDTAVYYCARGQGYTHSWGQGTMVTVSS
VL: DIQMTQSPSTLSASVGDRVTITCRASEGIYHWLAWYQQKPGKAPKLLIYKASSLASGVPSRFSGSGSGTEFTLTISSLQPDDFATYYCQQYSNYPPTFGGGTKLEIK
notes: also called B09-GL; cMET IgG B09

Key:
[1] = molecular target: T3, Human EGFR (recombinant, soluble monomeric) (human, UniProt P00533 25-645); assay: SPR, Biacore T200, antibody captured on anti-human IgG, soluble monomeric antigen as analyte, 25 C
T3 construct: also called EGFR antigen

[2] = molecular target: T4, Cynomolgus monkey EGFR (recombinant, soluble monomeric) (cynomolgus monkey, UniProt P55245 25-645 (rhesus entry)); assay: as above
T4 construct: also called cyno EGFR

[3] = molecular target: T5, Mouse EGFR (recombinant, soluble monomeric) (mouse, UniProt Q01279 25-647); assay: as above
T5 construct: also called murine EGFR

[4] = molecular target: T6, Human cMET (recombinant, soluble monomeric) (human, UniProt P08581 25-932); assay: ELISA: antigen coated at 1 ug/mL, antibody dilution series, goat anti-human Fab-HRP, A450; panel Human cMET
T6 construct: in the HTRF assay it is called the human cMET receptor; also called His-tagged cMET antigen
T6 sequence (P08581 25-932): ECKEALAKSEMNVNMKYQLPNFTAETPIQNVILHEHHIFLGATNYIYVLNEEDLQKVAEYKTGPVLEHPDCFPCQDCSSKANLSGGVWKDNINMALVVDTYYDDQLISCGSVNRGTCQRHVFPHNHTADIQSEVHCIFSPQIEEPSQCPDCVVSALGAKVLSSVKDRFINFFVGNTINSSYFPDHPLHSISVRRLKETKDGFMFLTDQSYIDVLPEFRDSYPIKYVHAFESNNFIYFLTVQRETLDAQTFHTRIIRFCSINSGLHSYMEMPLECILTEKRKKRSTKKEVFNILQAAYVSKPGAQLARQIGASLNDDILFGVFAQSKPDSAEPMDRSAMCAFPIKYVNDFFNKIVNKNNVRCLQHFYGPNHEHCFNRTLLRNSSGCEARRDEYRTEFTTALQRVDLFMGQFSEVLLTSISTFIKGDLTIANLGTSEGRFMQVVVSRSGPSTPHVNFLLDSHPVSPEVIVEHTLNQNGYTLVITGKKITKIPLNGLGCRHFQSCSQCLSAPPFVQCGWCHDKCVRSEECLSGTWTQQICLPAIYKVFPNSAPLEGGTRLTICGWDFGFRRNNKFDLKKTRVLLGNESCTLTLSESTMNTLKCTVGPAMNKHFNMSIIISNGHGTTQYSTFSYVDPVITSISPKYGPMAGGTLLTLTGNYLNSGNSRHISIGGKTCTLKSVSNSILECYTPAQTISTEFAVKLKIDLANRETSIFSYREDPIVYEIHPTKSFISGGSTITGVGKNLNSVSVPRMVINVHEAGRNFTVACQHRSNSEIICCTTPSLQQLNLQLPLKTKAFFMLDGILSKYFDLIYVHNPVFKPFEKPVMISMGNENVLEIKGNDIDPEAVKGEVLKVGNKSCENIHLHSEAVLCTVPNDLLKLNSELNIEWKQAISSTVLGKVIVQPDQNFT

Mouse cMET (recombinant) = Mouse cMET (recombinant) (mouse, UniProt P16056 25-929, limits assumed); assay: ELISA: antigen coated at 1 ug/mL, antibody dilution series, goat anti-human Fab-HRP, A450; panel Mouse cMET
Mouse cMET (recombinant), sequence (P16056 25-929 limits assumed): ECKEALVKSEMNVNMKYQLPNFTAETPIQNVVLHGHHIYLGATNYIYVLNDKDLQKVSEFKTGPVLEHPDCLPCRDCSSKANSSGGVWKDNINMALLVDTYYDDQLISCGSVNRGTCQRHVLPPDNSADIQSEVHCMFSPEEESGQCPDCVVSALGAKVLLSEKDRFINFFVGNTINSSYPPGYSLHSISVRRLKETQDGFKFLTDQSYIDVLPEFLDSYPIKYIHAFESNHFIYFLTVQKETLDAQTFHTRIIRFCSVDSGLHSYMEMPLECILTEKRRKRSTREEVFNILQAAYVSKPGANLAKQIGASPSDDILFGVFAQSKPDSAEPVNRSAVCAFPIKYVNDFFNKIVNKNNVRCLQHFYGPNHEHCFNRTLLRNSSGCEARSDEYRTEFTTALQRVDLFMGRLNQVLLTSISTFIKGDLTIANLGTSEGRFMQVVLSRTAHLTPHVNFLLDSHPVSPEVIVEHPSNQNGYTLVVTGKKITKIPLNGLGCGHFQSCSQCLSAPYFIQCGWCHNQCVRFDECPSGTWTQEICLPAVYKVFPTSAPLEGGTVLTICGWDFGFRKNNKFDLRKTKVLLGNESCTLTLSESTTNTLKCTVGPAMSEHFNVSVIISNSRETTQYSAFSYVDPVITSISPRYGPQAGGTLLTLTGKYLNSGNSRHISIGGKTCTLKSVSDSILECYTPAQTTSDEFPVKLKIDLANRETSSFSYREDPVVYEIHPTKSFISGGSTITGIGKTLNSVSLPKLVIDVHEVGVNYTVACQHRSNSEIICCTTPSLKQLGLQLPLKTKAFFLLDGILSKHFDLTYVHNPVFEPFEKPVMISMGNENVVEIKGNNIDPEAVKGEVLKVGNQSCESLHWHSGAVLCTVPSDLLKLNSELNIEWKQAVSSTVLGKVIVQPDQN

HER2 = molecular target: T7, HER2 (UniProt P04626 23-652, limits assumed); assay: ELISA: antigen coated at 1 ug/mL, antibody dilution series, goat anti-human Fab-HRP, A450; panel Human HER2
T7 construct: also called EGFR HER family protein HER2

HER3 = molecular target: T8, HER3 (UniProt P21860 20-643, limits assumed); assay: ELISA: antigen coated at 1 ug/mL, antibody dilution series, goat anti-human Fab-HRP, A450; panel Human HER3
T8 construct: also called EGFR HER family protein HER3

HER4 = molecular target: T1, HER4; assay: ELISA: antigen coated at 1 ug/mL, antibody dilution series, goat anti-human Fab-HRP, A450; panel Human HER4
Semaphorin 3a = molecular target: T2, Semaphorin 3a; assay: ELISA: antigen coated at 1 ug/mL, antibody dilution series, goat anti-human Fab-HRP, A450; panel Human Sema3a
[5] = molecular target: T9, Cynomolgus monkey cMET (recombinant, soluble monomeric) (cynomolgus monkey, UniProt A0M8R7 25-932 (Papio anubis entry)); assay: ELISA: antigen coated at 1 ug/mL, antibody dilution series, goat anti-human Fab-HRP, A450; panel Cynomolgus cMET
T9 construct: also called cyno cMET
T9 sequence (A0M8R7 25-932 S170N/I621T): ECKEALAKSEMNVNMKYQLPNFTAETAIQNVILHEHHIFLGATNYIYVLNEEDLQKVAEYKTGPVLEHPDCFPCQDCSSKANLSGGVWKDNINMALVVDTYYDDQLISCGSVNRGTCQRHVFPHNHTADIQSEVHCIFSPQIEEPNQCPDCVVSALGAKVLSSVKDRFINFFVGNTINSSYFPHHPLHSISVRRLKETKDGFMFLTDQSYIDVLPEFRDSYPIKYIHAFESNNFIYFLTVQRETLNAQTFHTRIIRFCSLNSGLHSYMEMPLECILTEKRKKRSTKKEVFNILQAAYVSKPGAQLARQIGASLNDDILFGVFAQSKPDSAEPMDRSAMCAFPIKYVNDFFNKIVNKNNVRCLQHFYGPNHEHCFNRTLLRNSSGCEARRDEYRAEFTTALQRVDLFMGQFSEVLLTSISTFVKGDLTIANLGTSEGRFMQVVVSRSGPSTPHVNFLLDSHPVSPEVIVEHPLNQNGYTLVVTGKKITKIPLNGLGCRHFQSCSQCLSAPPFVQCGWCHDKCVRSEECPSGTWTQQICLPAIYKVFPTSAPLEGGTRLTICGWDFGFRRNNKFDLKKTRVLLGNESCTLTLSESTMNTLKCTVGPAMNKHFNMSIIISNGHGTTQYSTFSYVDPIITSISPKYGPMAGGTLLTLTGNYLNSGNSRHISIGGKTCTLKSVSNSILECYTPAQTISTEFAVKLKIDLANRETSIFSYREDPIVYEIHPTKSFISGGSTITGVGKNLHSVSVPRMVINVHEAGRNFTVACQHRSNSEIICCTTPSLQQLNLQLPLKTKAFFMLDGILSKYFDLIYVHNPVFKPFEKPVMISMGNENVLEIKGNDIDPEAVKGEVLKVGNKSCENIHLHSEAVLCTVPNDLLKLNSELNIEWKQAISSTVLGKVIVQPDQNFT

Ron (CD136) = Ron (CD136) (UniProt Q04912 25-957, limits assumed); assay: ELISA: antigen coated at 1 ug/mL, antibody dilution series, goat anti-human Fab-HRP, A450; panel Human Ron (CD136)
[6] = molecular target: T6, Human cMET (recombinant, soluble …); assay: Octet biolayer interferometry, antigen capture format: His-tagged human cMET on NI-NTA sensors, then antibody (66 nM), then human EGFR (500 nM)
[7] = molecular target: T9, Cynomolgus monkey cMET (recombinant, …); assay: SPR, Biacore T200, antibody captured on anti-human IgG, soluble monomeric antigen as analyte, 25 C
[8] = molecular target: T6, Human cMET (recombinant, soluble …); assay: as above
[9] = molecular target: T5, Mouse EGFR (recombinant, soluble …); assay: ELISA: antigen coated at 1 ug/mL, antibody dilution series, goat anti-human Fab-HRP, A450; panel Mouse EGFR
[10] = molecular target: T4, Cynomolgus monkey EGFR (recombinant, …); assay: ELISA: antigen coated at 1 ug/mL, antibody dilution series, goat anti-human Fab-HRP, A450; panel Cynomolgus EGFR
[11] = molecular target: T3, Human EGFR (recombinant, soluble …); assay: Octet biolayer interferometry, antigen capture format: His-tagged human cMET on NI-NTA sensors, then antibody (66 nM), then human EGFR (500 nM)

Row | Binder | Kd [1] | koff [1] | kon [1] | Kd [2] | koff [2] | kon [2] | Kd [3] | koff [3] | kon [3] | binding result (Mouse cMET (recombinant)) | binding result (HER2) | binding result (HER3) | binding result (HER4) | binding result (Semaphorin 3a) | binding result [5] | binding result (Ron (CD136)) | further results
1 | B1 | 46.6 nM | 0.00206 s⁻¹ | 44100 M⁻¹ s⁻¹ | 170 nM | 0.00601 s⁻¹ | 35400 M⁻¹ s⁻¹ | 488 nM | 0.019 s⁻¹ | 40300 M⁻¹ s⁻¹ | no binding (tested: 10 ug/ml) | no binding (tested: 10 ug/ml) | no binding (tested: 10 ug/ml) | no binding (tested: 10 ug/ml) | no binding (tested: 10 ug/ml) | no binding (tested: 10 ug/ml) | no binding (tested: 10 ug/ml) | binding result [4]: no binding (tested: 10 ug/ml)
2 | B2 | 2 nM | 0.000292 s⁻¹ | 148000 M⁻¹ s⁻¹ | 2.5 nM | 0.000288 s⁻¹ | 114000 M⁻¹ s⁻¹ | 4.4 nM | 0.000735 s⁻¹ | 167000 M⁻¹ s⁻¹ | no binding (tested: 10 ug/ml) | no binding (tested: 10 ug/ml) | no binding (tested: 10 ug/ml) | no binding (tested: 10 ug/ml) | no binding (tested: 10 ug/ml) | no binding (tested: 10 ug/ml) | no binding (tested: 10 ug/ml) | binding result [6]: no binding (tested: 66 nM)
3 | B3 |  |  |  |  |  |  |  |  |  | no binding (tested: 10 ug/ml) | no binding (tested: 10 ug/ml) | no binding (tested: 10 ug/ml) | no binding (tested: 10 ug/ml) | no binding (tested: 10 ug/ml) |  | no binding (tested: 10 ug/ml) | Kd [7]: 1.9 nM; koff [7]: 0.00194 s⁻¹; kon [7]: 1.04e+06 M⁻¹ s⁻¹; Kd [8]: 1.6 nM; koff [8]: 0.000882 s⁻¹; kon [8]: 563000 M⁻¹ s⁻¹; binding result [9]: no binding (tested: 10 ug/ml); binding result [10]: no binding (tested: 10 ug/ml); binding result [11]: no binding (tested: 500 nM EGFR)
